Here are results for two molecules from paper PMC11927444 (Journal for Immunotherapy of Cancer, 2025).

To fix the notation:
B2: Biotinylated IL-34 (ligand, human, UniProt Q6ZMJ4 19-242, looked up)
chain: LGNEPLEMWPLTQNEECTVTGFLRDKLQYRSRLQYMKHYFPINYKISVPYEGVFRIANVTRLQRAQVSERELRYLWVLVSLSATESVQDVLLEGHPSWKYLQEVETLLLNVQQGLTDVEVSPKVESVLSLLNAPGPNLKLVRPKALLDNCFRVMELLYCSCCKQSSVLNWQDCEVPSPQSCSPEPSLQYAATQLYPPPPWSPSSPPHSTGSVRPVRAQGEGLLP
modifications: biotin (biotinylated, site not stated)

Test in all cases: ELISA
In general terms: In an ELISA, binding on a coated surface is turned into a signal by an enzyme label.

The target of the test “Biotinylated IL-34” is B2.
Test [1] concerns the target Recombinant human CSF-1R-Fc (329-MR-100) (human, UniProt P07333 20-517).
Test [2] has as its target T1, Recombinant Syndecan-1 (2780-SD) (human, UniProt P18827 23-254).
T1 sequence (looked up): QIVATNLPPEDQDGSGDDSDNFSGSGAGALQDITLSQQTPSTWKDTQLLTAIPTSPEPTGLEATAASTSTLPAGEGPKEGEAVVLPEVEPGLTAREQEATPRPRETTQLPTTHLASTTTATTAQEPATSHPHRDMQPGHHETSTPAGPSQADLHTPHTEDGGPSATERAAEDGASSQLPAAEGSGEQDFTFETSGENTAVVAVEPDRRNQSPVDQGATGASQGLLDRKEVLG

Recombinant human CSF-1R-Fc (329-MR-100), sequence (P07333 20-517): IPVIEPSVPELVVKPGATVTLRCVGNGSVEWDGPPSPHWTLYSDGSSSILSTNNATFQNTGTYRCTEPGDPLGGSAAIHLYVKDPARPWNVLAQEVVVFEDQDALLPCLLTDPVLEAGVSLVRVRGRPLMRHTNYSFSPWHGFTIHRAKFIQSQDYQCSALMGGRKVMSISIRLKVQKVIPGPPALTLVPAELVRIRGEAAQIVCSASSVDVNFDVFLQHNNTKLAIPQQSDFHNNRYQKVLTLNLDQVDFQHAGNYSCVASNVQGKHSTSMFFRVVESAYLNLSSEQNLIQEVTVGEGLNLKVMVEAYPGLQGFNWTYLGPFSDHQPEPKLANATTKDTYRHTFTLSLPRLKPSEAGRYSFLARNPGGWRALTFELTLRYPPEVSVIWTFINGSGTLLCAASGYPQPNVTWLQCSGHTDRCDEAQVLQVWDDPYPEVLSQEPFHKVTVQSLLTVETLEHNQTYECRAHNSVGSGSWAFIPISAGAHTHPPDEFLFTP

B1: Recombinant human TREM2 (9256-T2-50) (receptor, UniProt Q9NZC2 19-174, looked up)
chain: HNTTVFQGVAGQSLQVSCPYDSMKHWGRRKAWCRQLGEKGPCQRVVSTHNLWLLSFLRRWNGSTAITDDTLGGTLTITLRNLQPHDAGLYQCQSLHGSEADTLRKVLVEVLADPLDHRDAGDLWFPGESESFEDAHVEHSISRSLLEGEIPFPPTS
In the case of B1, the binding result with Biotinylated IL-34 is “binds”. For the molecule B2, the binding result in test [1] and in test [2] was “binds” each time.
